Experiment [1] deals with rOaAEP1b, rOaAEP3, rOaAEP4 and rOaAEP5. Kind of experiment: Cyclization assay with rOaAEP1b, rOaAEP3, rOaAEP4 and rOaAEP5 (MALDI/ESI MS). The class given is biochemical, Oldenlandia affinis. As to conditions: peptides with added AEP recognition residues, 280 μM, enzymes 19.7 μg mL^−1 total protein, MS. How it is done: Linear target peptides (280 μM, unless otherwise indicated) were incubated with rOaAEP1b, rOaAEP3, rOaAEP4 or rOaAEP5 (total protein concentration as indicated in the description of figures) in activity buffer (50 mM sodium acetate, 50 mM NaCl, 1 mM ethylenediaminetetraacetic acid [EDTA], 0.5 μM Tris(2-carboxyethyl)phosphine hydrochloride [TCEP], pH 5). The reaction was allowed to proceed for up to 22 hours at room temperature and was analysed by matrix-assisted laser desorption/ionization mass spectrometry (MALDI MS), high performance liquid chromatography (HPLC) or nuclear magnetic resonance (NMR) as appropriate.
(§1) Cyclization or inter-molecular ligation of linear target peptides was monitored by MALDI or ESI MS. In both cases, the reaction mixture (5-50 μL) was de-salted using C18 zip tips (Millipore) and eluted in 4 μL 50-75% v/v acetonitrile, 0.1% v/v trifluoroacetic acid (TFA).
(§2) For MALDI MS, a saturated MALDI matrix solution (α-cyano-4-hyroxycinnamic acid, CHCA, Bruker) prepared in 95% v/v acetonitrile, 0.1% v/v TFA was diluted 1:22 such that the final matrix solution comprised 90% v/v acetonitrile, 0.1% v/v TFA and 1 mM NH4H2PO4. Eluted samples were mixed 1:4 with the MALDI matrix, spotted onto a MALDI plate and analyzed by an Ultraflex III TOF/TOF (Bruker) in positive reflector mode. Data were analyzed using the flexAnalysis program (Bruker).
(§3) For ESI MS, 96 μl of 75% v/v acetonitrile, 01% v/v TFA was added to the de-salted sample. The sample was then injected into a MicroTOF Q (Bruker) and data was collected in positive ionisation mode. The mass of ligated or cyclized product was determined by charge deconvolution using the Compass DataAnalysis program (Bruker).
The ability of activated AEPs (rOaAEP1b, rOaAEP3, rOaAEP4 and rOaAEP5) to cyclize peptide substrates structurally unrelated to cyclotides was tested in the cyclization assay described in the Materials and Methods. The anti-malarial peptide R1 (Harris et al. (2009) J Biol Chem 284(14):9361-9371; Harris et al. (2005) Infect Immun 73(10):6981-6989); Bac2A, a linear derivative of the bovine peptide bactenecin (Wu and Hancock (1999) Antimicrob Agents Ch 43:1274-1276); and the anti-fungal peptide EcAMP1 (Nolde et al. (2011) J Biol Chem 286(28):25145-25153) were produced with additional AEP recognition residues and used as the substrates.
To investigate the sequence requirements for in vitro cyclization, R1 was used as a model peptide. The recognition residues added to this model peptide were sequentially trimmed to determine the minimal requirements for AEP-mediated cyclization. The N- and C-terminal recognition residues were also substituted with alternate amino acids to determine if particular classes of residues were preferred for cyclization by these recombinant AEPs. The ability of activated AEPs (rOaAEP1b, rOaAEP3, rOaAEP4 and rOaAEP5) to cyclize the R1 peptide with varied flanking sequences was then tested in the cyclization assay described in the Materials and Methods (FIG. 10; Table 3).

Experiment [2] shares this test system. The experiment in a line: Intermolecular ligation assay with recombinant AEPs. Type of experiment: biochemical, Oldenlandia affinis. To be noted: target 140 μM, ligation partner GLK-biotin 700 μM, enzymes 19.7 μg mL^−1, 6 h, MALDI-MS. How it is done:
Target peptides (140 μM) were incubated with a ligation partner peptide (700 μM) and a recombinant AEP (rOaAEP1b, rOaAEP3, rOaAEP4 or rOaAEP5 at 19.7 μg mL^−1 total protein) in activity buffer (50 mM sodium acetate, 50 mM NaCl, 1 mM EDTA, 0.5 μM TCEP, pH 5). The reaction was allowed to proceed for up to 22 hours at room temperature and was analysed by MALDI MS or electrospray ionisation (ESI) mass spectrometry as appropriate.
as §1, §2, §3
To investigate the ability of recombinantly produced AEPs to perform inter-molecular ligation (as well as the intra-molecular ligation required to produce backbone-cyclized peptides), target peptides were incubated with ligation partner peptides as well as active enzyme (FIG. 11). The appearance of new linear peptides were tracked. […]

Experiment [3] can be described thus: Protease activity against IQF peptides. The class given is biochemical. To be noted: for P2′ substrate specificity (wt vs L31A IQF peptide): 50 μM IQF peptides, 37° C., initial velocity. The protocol:
FIG. 3 is a graphical representation showing expression of active rOaAEP1b in E. coli. (A) Pooled rOaAEP1b-containing anion exchange fractions pre- and post-activation at low pH were diluted 1:14 and tested for activity against the wildtype internally quenched fluorescence (wtIQF) peptide (11 μM) [SEQ ID NO:21]. Baseline fluorescence from a no-substrate control has been subtracted and the relative fluorescence intensity (RFU) at t=90 minutes is reported. A single representative experiment of two technical replicates is shown. (B) Activated rOaAEP1b was captured by cation exchange and the final product analyzed by SDS-PAGE followed by (i) Instant blue staining and (ii) Western blotting with anti-AEP1b polyclonal rabbit serum.
FIGS. 17A and 17B are graphical representations of substrate specificity of plant and human AEPs for wt (SEQ ID NO:21) and L31A (SEQ ID NO:25) IQF peptide substrates. Initial velocity of recombinant O. affinis AEPs (˜10 μg mL^−1 total protein) (17A) and rhuLEG (1.1 μg mL^−1 total protein) (17B) against 50 μM IQF peptide substrates is shown. The assay was conducted at 37° C. The average of two technical replicates are shown and the error bars report the range.
To assay activity of recombinant AEPs (rOaAEP1b, rOaAEP3, rOaAEP4 or rOaAEP5) against both internally-quenched and other fluorescent peptides, substrate and enzyme were diluted as appropriate in activity buffer (50 mM sodium acetate, 50 mM NaCl, 1 mM EDTA, 0.5 μM TCEP, pH 5). […] The change in fluorescence intensity over time was monitored on a SpectraMax M2 (Molecular Devices) using excitation/emission wavelengths of 320/420 nm (IQF peptides) or 360/460 nm (other fluorescent peptides). […]
IQF peptides that incorporate the P1-P4 as well as the P1′-P4′ residues are, however, effectively targeted by recombinant O. affinis AEPs. These peptides contain a fluorescence donor/quencher pair, with fluorescence observed upon the spatial separation of this pair following enzymatic cleavage. […]

The nature of experiment [4]: Protease activity against fluorogenic substrate Z-AAN-MCA. Type of experiment: biochemical. As to conditions: enzyme ~5 μg mL^−1 total protein, Z-AAN-MCA 100 μM, 37° C., 60 minutes. The protocol: FIG. 15 is a graphical representation of the activity of recombinant O. affinis AEPs (˜5 μg mL^−1 total protein) and rhuLEG (1 μg mL^−1 total protein) over time against the fluorogenic substrate Z-AAN-MCA (100 μM). Activity is tracked at 1 minute intervals at 37° C. for 60 minutes using excitation and emission wavelengths of 360 and 460 nm respectively. A single representative experiment is shown. RFU, relative fluorescence units.
To assay activity of recombinant AEPs (rOaAEP1b, rOaAEP3, rOaAEP4 or rOaAEP5) against both internally-quenched and other fluorescent peptides, substrate and enzyme were diluted as appropriate in activity buffer (50 mM sodium acetate, 50 mM NaCl, 1 mM EDTA, 0.5 μM TCEP, pH 5). To assay activity of recombinant human legumain (rhuLEG; R&D systems) against the same substrates, the enzyme was first activated by incubation in 50 mM sodium acetate, 100 mM NaCl, pH 4 (4 μL buffer/1 μL enzyme) for 2 hours at 37° C. Substrates and activated rhuLEG were diluted in 50 mM acetate, 0.1% v/v triton X 100, 0.5 μM TCEP pH 5.5 or in 50 mM MES, 250 mM NaCl, pH 5 as required. Diluted enzyme and substrate were added to black, flat bottomed microtiter plates in a total assay volume of 100-200 μL. The change in fluorescence intensity over time was monitored on a SpectraMax M2 (Molecular Devices) using excitation/emission wavelengths of 320/420 nm (IQF peptides) or 360/460 nm (other fluorescent peptides).
AEP activity has traditionally been tracked by monitoring cleavage of the fluorescent substrate Z-AAN-MCA (where Z is carboxybenzyl; MCA is 7-amido-4-methylcoumarin) [Saska et al. (2007) supra; Rotari et al. (2001) Biol. Chem. 382:953-959]. Cleavage C-terminal to the Asn liberates the fluorophore which then fluoresces to report substrate cleavage. […] They are Ac-YVAD-CHO, which is routinely used to identify AEP activity (Hatsugai et al. (2004) Science 305(5685): 855-858) and Ac-STRN-CHO, which represents the P1-P4 residues of the C-terminal kB1 cleavage site. These traditional routes of identifying AEP activity will therefore likely be ineffective for identification of AEPs with cyclizing ability.

Experiment [5] relates to target peptide-linker-ubiquitin-6xHis fusion protein. The experiment in a line: AEP-mediated processing of target peptides fused to ubiquitin. The class given is biochemical. As to conditions: kalata B1-ubiquitin 260 μg mL^−1, AEP 19.7 μg mL^−1 total protein, 22 h, SDS-PAGE/anti-6xHis Western blot.

Data on 3 molecules can be found in patent publication US20190225652A1, “GENERATION OF PEPTIDES” (Hexima Limited, priority 2015, published 2019).

In the case of “GKVFAEFLPLFSKFGSRMHILKNGL (Target peptide; R1) [SEQ ID NO:83, R1 peptide derivative]”, in experiment [1], the “cyclization of linear precursor peptide by recombinant AEPs” value is “poor substrate for backbone cyclization”. Further, in experiment [2], the “inter-molecular ligation, C-terminal labelling” value is given as “created a new linear peptide that incorporated a C-terminal biotin”.

B1: rOaAEP1b: recombinant Oldenlandia affinis asparaginyl endopeptidase OaAEP1b expressed in E. coli, activated (protein)
chain: MVRYLAGAVLLLVVLSVAAAVSGARDGDYLHLPSEVSRFFRPQETNDDHGEDSVGTRWAVLIAGSKGYANYRHQAGVCHAYQILKRGGLKDENIVVFMYDDIAYNESNPRPGVIINSPHGSDVYAGVPKDYTGEEVNAKNFLAAILGNKSAITGGSGKVVDSGPNDHIFIYYTDHGAAGVIGMPSKPYLYADELNDALKKKHASGTYKSLVFYLEACESGSMFEGILPEDLNIYALTSTNTTESSWCYYCPAQENPPPPEYNVCLGDLFSVAWLEDSDVQNSWYETLNQQYHHVDKRISHASHATQYGNLKLGEEGLFVYMGSNPANDNYTSLDGNALTPSSIVVNQRDADLLHLWEKFRKAPEGSARKEVAQTQIFKAMSHRVHIDSSIKLIGKLLFGIEKCTEILNAVRPAGQPLVDDWACLRSLVGTFETHCGSLSEYGMRHTRTIANICNAGISEEQMAEAASQACASIP
modifications: Oldenlandia affinis OaAEP1b
As to B1, in experiment [3], the “P2′ substrate specificity (wt vs L31A IQF peptide)” value is recorded as “preference for a bulky hydrophobic residue such as Leu at the P2′ position”. In experiment [3] (wt IQF peptide 11 μM, fractions diluted 1:14, 90 minutes, pre- vs post-activation), the “activity against IQF peptide following low pH activation” value was “dramatically increased”. The “activity against Z-AAN-MCA” value in experiment [4] is “nor rOaAEP1b, rOaAEP3, rOaAEP4 or rOaAEP5 (FIG. 15) had detectable activity”. For the same molecule, the “proportion of fusion protein enzymatically processed (loss of precursor)” value in experiment [5] is “the bulk of the precursor was being enzymatically processed”.

B2: rhuLEG: recombinant human legumain (R&D systems), an AEP that preferentially functions as a hydrolase (protein, UniProt Q99538 18-323, looked up)
Legumain: VPIDDPEDGGKHWVVIVAGSNGWYNYRHQADACHAYQIIHRNGIPDEQIVVMMYDDIAYSEDNPTPGIVINRPNGTDVYQGVPKDYTGEDVTPQNFLAVLRGDAEAVKGIGSGKVLKSGPQDHVFIYFTDHGSTGILVFPNEDLHVKDLNETIHYMYKHKMYRKMVFYIEACESGSMMNHLPDNINVYATTAANPRESSYACYYDEKRSTYLGDWYSVNWMEDSDVEDLTKETLHKQYHLVKSHTNTSHVMQYGNKTISTMKVMQFQGMKRKASSPVPLPPVTHLDLTPSPDVPLTIMKRKLMNTN
Take B2: the “P2′ substrate specificity (wt vs L31A IQF peptide)” value in experiment [3] is given as “not shared”.
